Source: US20030170252A1, “Antibody compositions specific for p33QIK and p63Krs1 polypeptides and uses thereof” (priority 2000, published 2003)

B1: Lambda phosphatase: Lambda protein phosphatase purchased from NE BioLabs (protein)
chain: MRYYEKIDGSKYRNIWVVGDLHGCYTNLMNKLDTIGFDNKKDLLISVGDLVDRGAENVECLELITFPWFRAVRGNHEQMMIDGLSERGNVNHWLLNGGGWFFNLDYDKEILAKALAHKADELPLIIELVSKDKKYVICHADYPFDEYEFGKPVDHQQVIWNRERISNSQNGIVKEIKGADTFIFGHTPAVKPLKFANQMYIDTGAVFCGNLTLIQVQGEGA
B2: caspase-3: Recombinant human Caspase-3 purchased from Alexis Biochemicals (protein)
chain: SGISLDNSYKMDYPEMGLCIIINNKNFHKSTGMTSRSGTDVDAANLRETFRNLKYEVRNKNDLTREEIVELMRDVSKEDHSKRSSFVCVLLSHGEEGIIFGTNGPVDLKKITNFFRGDRCRSLTGKPKLFIIQACRGTELDCGIETDSGVDDDMACHKIPVEADFLYAYSTAPGYYSWRNSKDGSWFIQSLCAMLKQYADKLEFMHILTRVNRKVATEFESFSFDATFHAKKQIPCIVSMLTKELYFYH

Key:
[1] = system: p33^QIK; experiment: Phosphatase treatment of immunoprecipitated p33^QIK, in-gel kinase readout; assay type: biochemical, mouse; details: immune complexes from quiescent or osmotic-stressed quiescent cells; 0.1 unit PP1, 30° C., 30 min
Experimental: NIH3T3 cultures were synchronized in quiescent state by serum starvation for 48 hr (G0), followed by treatment with 300 mM NaCl (G0/NaCl) for 2 hr. p33^QIK in 10 μg of cytosolic lysates (S20) were immunoprecipitated by Ab-KQ (IP), followed by incubation of the immune complexes with 0.1 unit of PP1 (Ps) (lanes 2, 3, 5 and 6) in phosphatase buffer (50 mM Tris-HCl, pH 7.0, 0.1 mM EDTA, 5 mM dithiothreitol, 0.01% Brij 35, 2 mM MnCl2) in the presence of 10 mM Na3VO4 and 50 mM NaF (Ps+I)(lanes 3 and 6) at 30° C. for 30 min. The kinase activity of p33^QIK in the immune complexes was determined by the in-gel kinase assay using MBP as a substrate. Bar indicates p33^QIK.
(§1) MBP (BRL/GIBCO, Grand Island, N.Y.) was used as a substrate in the assay and the in-gel kinase assay was performed as previously described (Wang et al., 1992). Briefly, 10% SDS-polyacrylamide gel (SDS-PAG) was copolymerized with 0.4 mg/ml MBP. Cellular proteins were resolved in the MBP-immobilized SDS-PAG, followed by rinsing the gel with 20% isopropanol in buffer B (100 mM Tris, pH 8, 5 mM β-mercaptoethanol). The gel was denatured in buffer B supplemented with 6 M guanidine-HCl and renatured with buffer B supplemented with 0.04% Tween 40 (Kameshita and Fujisawa, 1989). […] Protein kinases which phosphorylated MBP in the gel were detected by autoradiography of the [γ^32P]-labeled MBP. […]

[2] = system: p63^Krsl, p35, and p33^QIK; experiment: Caspase-3 treatment of Ab-KQ immune complexes, in-gel kinase readout; assay type: biochemical, mouse; details: 0.2 μg Caspase-3, 37° C., 30 min
Experimental: Both p63^Krsl and p33^QIK in 10 μg of cytosolic lysates (S20) were immunoprecipitated by Ab-KQ (lanes 2 to 4 and 6 to 8), followed by reatment with 0.2 μg Caspase-3 (C)(lanes 3, 4, 7 and 8) in the presence of 5 μM caspase inhibitor Z-D-CH2-DCB (C+I)(lanes 4 and 8) at 37° C. for 30 min. The kinase activities of p63^Krsl, p35, and p33^QIK in 5 μg of S20 (lanes 1 and 5) and in the immune complexes were determined by the in-gel kinase assay using MBP as a substrate. Bars indicate p63^Krsl p35, and p33^QIK.
as §1, with “1989). Kinase reaction was carried out by incubating the gel with kinase buffer (20 Mm Tris, pH 7.2, 10 mM MgCl2, 15 mM β-glycerolphosphate) supplemented with 50 μM γATP and 50 μCi of [γ-^32P]ATP at 22° C. for 30 min.” for “1989).”

| Molecule | kinase activity of activated p33^QIK after phosphatase treatment [1] | kinase activities of p63^Krsl, p35 and p33^QIK in immune complexes ([2]; immune complexes from STSP-treated cells) | kinase activity of p33^QIK in immune complexes ([2]; p33^QIK isolated from osmotic-stressed quiescent or growing cultures) |
| --- | --- | --- | --- |
| B1 | A similar result was obtained | – | – |
| B2 | – | both the kinase activities of p63^Krsl and p35 decreased in correlation with an increased p33^QIK activity | no change was detected in the kinase activity of p33^QIK |
